Four molecules from patent publication US20100178296A1 can be followed below.

The target in assay [1] is fusion protein of the extracellular domain of the human inhibitory receptor CD200R fused to the Fc portion of human IgG1 (human) (UniProt Q8TD46). In words: KinExA, human CD200R-Ig in solution and on the particles. For orientation: Kinetic exclusion samples the free partner from a solution-phase mixture.
Assay [2] shares this target. In words: SPR (BIAcore 3000), fusion protein captured by anti-human Fc, antibody at 133 and 13.3 nM, bivalent analyte model. On the technique in general: Surface plasmon resonance follows binding to a sensor surface in real time, without labels.
For assay [3], the target named is human CD200R, full length, expressed on murine mast cells (DT762) (human) (UniProt Q8TD46).
Chain of human CD200R, full length, expressed on murine mast cells (DT762) (human) (Q8TD46 other isoform, or with tags, fused parts or gaps limits assumed, form in doubt): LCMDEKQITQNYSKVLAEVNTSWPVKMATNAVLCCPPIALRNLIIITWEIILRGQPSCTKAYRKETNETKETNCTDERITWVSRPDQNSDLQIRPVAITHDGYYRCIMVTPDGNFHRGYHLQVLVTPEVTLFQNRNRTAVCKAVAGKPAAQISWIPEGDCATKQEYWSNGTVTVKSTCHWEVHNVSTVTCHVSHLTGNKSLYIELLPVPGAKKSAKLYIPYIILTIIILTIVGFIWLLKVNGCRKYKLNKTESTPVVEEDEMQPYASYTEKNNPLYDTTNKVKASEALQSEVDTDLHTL
In assay [4] the target is fusion protein of the extracellular domain of the human inhibitory receptor CD200R fused to the Fc portion of human IgG1 (human) (UniProt Q8TD46). In words: SPR (BIAcore 3000), fusion protein captured by anti-human Fc, antibody 0.82 to 600 nM, bivalent analyte model.

Chain of fusion protein of the extracellular domain of the human inhibitory receptor CD200R fused to the Fc portion of human IgG1 (human) (Q8TD46 other isoform, or with tags, fused parts or gaps limits assumed, form in doubt): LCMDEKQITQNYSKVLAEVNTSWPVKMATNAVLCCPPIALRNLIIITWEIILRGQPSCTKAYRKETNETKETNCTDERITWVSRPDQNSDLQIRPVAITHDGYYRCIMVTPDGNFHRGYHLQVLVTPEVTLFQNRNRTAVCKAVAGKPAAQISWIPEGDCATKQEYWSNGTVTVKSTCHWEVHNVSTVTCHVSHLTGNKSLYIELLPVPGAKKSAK

B1: DX178, rat anti-human inhibitory CD200R monoclonal antibody (antibody, V domains shown)
VH: EIQLQESGPGLVKPSQSLSLTCSVTGFTITSGYDWSWIRKFPGNKMEWMGYIGFSGSTVYNPSLNSRISITRDTAKNQFFLQLNSVTTEDTATYHCAKSFVQNTFIYDWFFDFWGPGTMVTVSS
VL: DVRMTQSPSNLAASPGESVSINCKASKNISKYLAWYQQKPGKANRLLICSGSTLQSGTPSRFSGSGFGTDFTLTIRNLEPEDFGLYYCQQHNEFPLTFGSGTKLEIKR
On to B1, for which the Kd came to 0.628 nM in assay [1] and 1.62 nM in assay [2].

B2: DX182, rat anti-human inhibitory CD200R monoclonal antibody (antibody, V domains shown)
VL: EVQMTQSPSTLTASPGESVSINCKASKNIRSYLAWYQQKPGKPNKLLIYSGSTLHSGTPSRFSGSGFGTDFTLTIRNLEPEDFGLYYCQQHHEYPLTFGSGTKLEIKR
VH: EIQLQESGPGLVKPSQSLSLTCSVTGYTITSGYDWSWIRKFPGNKMEWMGYINYGGSTNYKPSLGSRISITRDTSKNQFFLQLNSVSPEDTATYYCAKYNEYKSYIYDWYFDFWGPGTMVTVSS
The molecule B2 showed an IC50 (read off the curve) in assay [3] of 0.2 µg/mL. The results for the Kd in assay [4], in assay [1] and in assay [2] were 0.76 nM, 0.056 nM and 0.024 nM, respectively.

B3: DX185, rat anti-human inhibitory CD200R monoclonal antibody (antibody, V domains shown)
VH: EIQLQESGPGLVKPSQSFSLTCSVTGYTITSGYDWSWIRKFPGNRMEWMGYINYSGSTVYNPSLRSRFSITRDTSKNQFFLQLNSVASEDTATYYCAKFEASNTYLYDWYFDFWGPGTMVTVSS
VL: DVQMTQSPSYLAASPGESVSISCKAGKNINTNLAWYQAKPGKTNKVLIHSGSTLQSGTPSRFSGSGFGTDFTLTIRSLEPEDFAVYYCQQHNEFPLTFGSGTKLEIKR
In the case of B3, the Kd in assay [1] amounted to 0.126 nM; in assay [2], 0.202 nM.

B4: DX184, rat anti-human inhibitory CD200R monoclonal antibody (antibody, V domains shown)
VL: DIVMTQSPTFMSISVGDRVTMSCKASQNVGSNVDWYQQKTGQSPKLLIYKASNRYTGVPDRFTGSGSGTGFTFTITNLQAEDLAVYYCMQSLSFPYTSGAGT
VH: QVQLKESGPGLVQPSQTLSLTCTVSGFSLTNNGVSWVRQPPGKGLEWIAAISSGGGTFYNSALKSRLSISRDTSKSQVFLKMNSLQTEDTAIYFCARDGDWDWYFDFWGPGTMVTVSS
As to B4, the values for the Kd in assay [1] and in assay [2] were 0.026 nM and 1.93 nM, respectively.
